Results: patent US20240424125A1 (Zymeworks, published 2024)

Assays:
[1] = biological target: T1, recombinant His-tagged human FRα (ACROBiosystems) (human, UniProt P15328 25-233); experiment: BLI (Octet RED96) as in Example 8: antibody captured, His-tagged hFRα as analyte, mean of n=2
T1 construct: also called hFRα; hFRα antigen; not shown: His tag
Procedure: The assay buffer used was KB buffer (kinetics buffer, composed of PBS pH 7.4, 0.1% BSA, 0.02% Tween 20, 0.05% sodium azide) supplemented with 0.06% Tween 20 and in some instances also with 1% BSA. The experiment was conducted at 30° C. with a shake speed of 1000 rpm.
Data analysis was performed using Data Analysis Software 9.0 (ForteBio, Fremont CA). The reference-subtracted binding curves were globally fitted to the 1:1 interaction model to generate the binding kinetic parameters kₒₙ, koff, and the dissociation constant KD.

human FRα on cells [2] = biological target: T2, human FRα on cells (human, UniProt P15328 25-234); experiment: cell-based or functional assay
human FRα on cells [3] = biological target: T2, human FRα on cells; experiment: cell-based or functional assay; remark: listed apart in the source

T2 sequence (P15328 25-234 limits assumed): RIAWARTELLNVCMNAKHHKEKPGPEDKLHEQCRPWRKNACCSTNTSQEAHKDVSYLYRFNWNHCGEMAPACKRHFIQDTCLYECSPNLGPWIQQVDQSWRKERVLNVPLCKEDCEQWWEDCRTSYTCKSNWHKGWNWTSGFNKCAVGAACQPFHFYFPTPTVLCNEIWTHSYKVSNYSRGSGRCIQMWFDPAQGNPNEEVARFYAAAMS
T1 sequence (P15328 25-233 limits assumed): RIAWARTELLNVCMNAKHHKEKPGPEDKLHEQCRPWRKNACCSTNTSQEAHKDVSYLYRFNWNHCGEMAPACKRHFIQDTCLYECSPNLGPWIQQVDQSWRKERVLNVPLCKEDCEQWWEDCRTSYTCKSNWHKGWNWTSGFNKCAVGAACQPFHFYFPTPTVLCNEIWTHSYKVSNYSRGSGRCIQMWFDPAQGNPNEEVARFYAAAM

B1: v35342 (antibody, human IgG1, kappa, V domains shown)
VH: EVQLLESGGGLVQPGGSLRLSCAVSGFSLSLYGVSWVRQAPGKGLEWIGSLNSGGSAYYADSVKGRSTISRDNSKNTVYLQMNSLRAEDTAVYYCARSGSGYPMDYLAIWGQGTLVTVSS
VL: DYQMTQSPSSVSASVGDRVTITCRASQSIWYWLAWYQQKPGKAPKLLIYEASTLASGVPSRFSGSGSGTDFTLTISSVQPEDAATYYCQQGYGRWHILNIFGGGTKVEVKR
Kd [1]: 4.1 nM

B2: v35350 (antibody, human IgG1, kappa, V domains shown)
VH: EVQLLESGGGLVQPGGSLRLSCAVSGFSLSLYGVSWVRQAPGKGLEWIGAVNSGGSAYYADSFKGRSTISRDNSKNTVYLQMNSLRAEDTAVYYCARSGSGYPMDYHPIWGQGTLVTVSS
VL: DYQMTQSPSSVSASVGDRVTITCRASQSIWYWLAWYQQKPGKAPKLLIYEASTLASGVPSRFSGSGSGTDFTLTISSVQPEDAATYYCQQGYGRWHILNIFGGGTKVEVKR
Kd [1]: 3.55 nM

B3: v35347 (antibody, human IgG1, kappa, V domains shown)
VH: EVQLLESGGGLVQPGGSLRLSCAVSGFSLSLYGVSWVRQAPGKGLEWIGAVNSGGSAYYADSFKGRSTISRDNSKNTVYLQMNSLRAEDTAVYYCARSGSGYPMDYHPIWGQGTLVTVSS
VL: DYQMTQSPSSVSASVGDRVTITCRASQSIGDWLAWYQQKPGKAPKLLIYEASTLASGVPSRFSGSGSGTDFTLTISSVQPEDAATYYCQQGYGRSNVDNIFGGGTKVEVKR
Kd [1]: 8.65 nM

B4: v30384-MC-GGFG-AM-DXd1 (antibody, human IgG1, kappa)
heavy 1: EVQLLESGGGLVQPGGSLRLSCAVSGFSLSSYGVSWVRQAPGKGLEWIGAVNSGGSAYYADSVKGRSTISRDNSKNTVYLQMNSLRAEDTAVYYCARSGSGYPMDYLAIWGQGTLVTVSSASTKGPSVFPLAPSSKSTSGGTAALGCLVKDYFPEPVTVSWNSGALTSGVHTFPAVLQSSGLYSLSSVVTVPSSSLGTQTYICNVNHKPSNTKVDKKVEPKSCDKTHTCPPCPAPELLGGPSVFLFPPKPKDTLMISRTPEVTCVVVDVSHEDPEVKFNWYVDGVEVHNAKTKPREEQYNSTYRVVSVLTVLHQDWLNGKEYKCKVSNKALPAPIEKTISKAKGQPREPQVYVYPPSRDELTKNQVSLTCLVKGFYPSDIAVEWESNGQPENNYKTTPPVLDSDGSFALVSKLTVDKSRWQQGNVFSCSVMHEALHNHYTQKSLSLSPG
heavy 2: not shown
light: DYQMTQSPSSVSASVGDRVTITCRASQSIGDWLAWYQQKPGKAPKLLIYEASTLASGVPSRFSGSGSGTDFTLTISSVQPEDAATYYCQQGYGRSNVDNIFGGGTKVEVKRTVAAPSVFIFPPSDEQLKSGTASVVCLLNNFYPREAKVQWKVDNALQSGNSQESVTEQDSKDSTYSLSSTLTLSKADYEKHKVYACEVTHQGLSSPVTKSFNRGEC
modifications: drug-linker MC-GGFG-AM-DXd1 on the antibody at DAR 8; conjugated residues not stated
EC50 (nM), in vitro cytotoxicity, 2D monolayer, JEG-3 cells, 4 days (human FRα on cells [2]): 0.54 nM
EC50 (nM), in vitro cytotoxicity, 2D monolayer, KB-HeLa cells, 4 days (human FRα on cells [2]): 0.52 nM
EC50 (nM), in vitro cytotoxicity, 2D monolayer, T-47D cells, 4 days (human FRα on cells [2]): 2.08 nM
3D EC50 (nM), in vitro cytotoxicity, HEC-1-A spheroids, 6 days (human FRα on cells [3]): 1.1 nM
3D EC50 (nM), in vitro cytotoxicity, IGROV-1 spheroids, 6 days (human FRα on cells [3]): 0.5 nM
3D EC50 (nM), in vitro cytotoxicity, OVCAR-3 spheroids, 6 days (human FRα on cells [3]): 8.2 nM
3D EC50 (nM), in vitro cytotoxicity, T-47D spheroids, 6 days (human FRα on cells [3]): 0.9 nM

B5: v30384-MT-GGFG-Compound 141 (antibody, human IgG1, kappa)
heavy 1: EVQLLESGGGLVQPGGSLRLSCAVSGFSLSSYGVSWVRQAPGKGLEWIGAVNSGGSAYYADSVKGRSTISRDNSKNTVYLQMNSLRAEDTAVYYCARSGSGYPMDYLAIWGQGTLVTVSSASTKGPSVFPLAPSSKSTSGGTAALGCLVKDYFPEPVTVSWNSGALTSGVHTFPAVLQSSGLYSLSSVVTVPSSSLGTQTYICNVNHKPSNTKVDKKVEPKSCDKTHTCPPCPAPELLGGPSVFLFPPKPKDTLMISRTPEVTCVVVDVSHEDPEVKFNWYVDGVEVHNAKTKPREEQYNSTYRVVSVLTVLHQDWLNGKEYKCKVSNKALPAPIEKTISKAKGQPREPQVYVYPPSRDELTKNQVSLTCLVKGFYPSDIAVEWESNGQPENNYKTTPPVLDSDGSFALVSKLTVDKSRWQQGNVFSCSVMHEALHNHYTQKSLSLSPG
heavy 2: not shown
light: DYQMTQSPSSVSASVGDRVTITCRASQSIGDWLAWYQQKPGKAPKLLIYEASTLASGVPSRFSGSGSGTDFTLTISSVQPEDAATYYCQQGYGRSNVDNIFGGGTKVEVKRTVAAPSVFIFPPSDEQLKSGTASVVCLLNNFYPREAKVQWKVDNALQSGNSQESVTEQDSKDSTYSLSSTLTLSKADYEKHKVYACEVTHQGLSSPVTKSFNRGEC
modifications: drug-linker MT-GGFG-Compound 141 on the antibody at DAR 8; conjugated residues not stated
EC50 (nM), in vitro cytotoxicity, 2D monolayer, JEG-3 cells, 4 days (human FRα on cells [2]): 1.68 nM
EC50 (nM), in vitro cytotoxicity, 2D monolayer, KB-HeLa cells, 4 days (human FRα on cells [2]): 0.81 nM
EC50 (nM), in vitro cytotoxicity, 2D monolayer, T-47D cells, 4 days (human FRα on cells [2]): 0.44 nM
3D EC50 (nM), in vitro cytotoxicity, HEC-1-A spheroids, 6 days (human FRα on cells [3]): 5 nM
3D EC50 (nM), in vitro cytotoxicity, IGROV-1 spheroids, 6 days (human FRα on cells [3]): 1 nM
3D EC50 (nM), in vitro cytotoxicity, OVCAR-3 spheroids, 6 days (human FRα on cells [3]): 1.6 nM
3D EC50 (nM), in vitro cytotoxicity, T-47D spheroids, 6 days (human FRα on cells [3]): 0.4 nM

B6: v30384-MT-GGFG-AM-Compound 139 (antibody, human IgG1, kappa)
heavy 1: EVQLLESGGGLVQPGGSLRLSCAVSGFSLSSYGVSWVRQAPGKGLEWIGAVNSGGSAYYADSVKGRSTISRDNSKNTVYLQMNSLRAEDTAVYYCARSGSGYPMDYLAIWGQGTLVTVSSASTKGPSVFPLAPSSKSTSGGTAALGCLVKDYFPEPVTVSWNSGALTSGVHTFPAVLQSSGLYSLSSVVTVPSSSLGTQTYICNVNHKPSNTKVDKKVEPKSCDKTHTCPPCPAPELLGGPSVFLFPPKPKDTLMISRTPEVTCVVVDVSHEDPEVKFNWYVDGVEVHNAKTKPREEQYNSTYRVVSVLTVLHQDWLNGKEYKCKVSNKALPAPIEKTISKAKGQPREPQVYVYPPSRDELTKNQVSLTCLVKGFYPSDIAVEWESNGQPENNYKTTPPVLDSDGSFALVSKLTVDKSRWQQGNVFSCSVMHEALHNHYTQKSLSLSPG
heavy 2: not shown
light: DYQMTQSPSSVSASVGDRVTITCRASQSIGDWLAWYQQKPGKAPKLLIYEASTLASGVPSRFSGSGSGTDFTLTISSVQPEDAATYYCQQGYGRSNVDNIFGGGTKVEVKRTVAAPSVFIFPPSDEQLKSGTASVVCLLNNFYPREAKVQWKVDNALQSGNSQESVTEQDSKDSTYSLSSTLTLSKADYEKHKVYACEVTHQGLSSPVTKSFNRGEC
modifications: drug-linker MT-GGFG-AM-Compound 139 on the antibody at DAR 8; conjugated residues not stated
EC50 (nM), in vitro cytotoxicity, 2D monolayer, JEG-3 cells, 4 days (human FRα on cells [2]): 1.14 nM
EC50 (nM), in vitro cytotoxicity, 2D monolayer, KB-HeLa cells, 4 days (human FRα on cells [2]): 0.72 nM
EC50 (nM), in vitro cytotoxicity, 2D monolayer, T-47D cells, 4 days (human FRα on cells [2]): 1.12 nM
3D EC50 (nM), in vitro cytotoxicity, HEC-1-A spheroids, 6 days (human FRα on cells [3]): 3.9 nM
3D EC50 (nM), in vitro cytotoxicity, IGROV-1 spheroids, 6 days (human FRα on cells [3]): 1 nM
3D EC50 (nM), in vitro cytotoxicity, OVCAR-3 spheroids, 6 days (human FRα on cells [3]): 1.5 nM
3D EC50 (nM), in vitro cytotoxicity, T-47D spheroids, 6 days (human FRα on cells [3]): 1.1 nM

B7: v30384-MC-GGFG-AM-Compound 141 (antibody, human IgG1, kappa)
heavy 1: EVQLLESGGGLVQPGGSLRLSCAVSGFSLSSYGVSWVRQAPGKGLEWIGAVNSGGSAYYADSVKGRSTISRDNSKNTVYLQMNSLRAEDTAVYYCARSGSGYPMDYLAIWGQGTLVTVSSASTKGPSVFPLAPSSKSTSGGTAALGCLVKDYFPEPVTVSWNSGALTSGVHTFPAVLQSSGLYSLSSVVTVPSSSLGTQTYICNVNHKPSNTKVDKKVEPKSCDKTHTCPPCPAPELLGGPSVFLFPPKPKDTLMISRTPEVTCVVVDVSHEDPEVKFNWYVDGVEVHNAKTKPREEQYNSTYRVVSVLTVLHQDWLNGKEYKCKVSNKALPAPIEKTISKAKGQPREPQVYVYPPSRDELTKNQVSLTCLVKGFYPSDIAVEWESNGQPENNYKTTPPVLDSDGSFALVSKLTVDKSRWQQGNVFSCSVMHEALHNHYTQKSLSLSPG
heavy 2: not shown
light: DYQMTQSPSSVSASVGDRVTITCRASQSIGDWLAWYQQKPGKAPKLLIYEASTLASGVPSRFSGSGSGTDFTLTISSVQPEDAATYYCQQGYGRSNVDNIFGGGTKVEVKRTVAAPSVFIFPPSDEQLKSGTASVVCLLNNFYPREAKVQWKVDNALQSGNSQESVTEQDSKDSTYSLSSTLTLSKADYEKHKVYACEVTHQGLSSPVTKSFNRGEC
modifications: drug-linker MC-GGFG-AM-Compound 141 on the antibody at DAR 8; conjugated residues not stated
EC50 (nM), in vitro cytotoxicity, 2D monolayer, JEG-3 cells, 4 days (human FRα on cells [2]): 3.45 nM
EC50 (nM), in vitro cytotoxicity, 2D monolayer, KB-HeLa cells, 4 days (human FRα on cells [2]): 0.77 nM
EC50 (nM), in vitro cytotoxicity, 2D monolayer, T-47D cells, 4 days (human FRα on cells [2]): 0.43 nM
3D EC50 (nM), in vitro cytotoxicity, HEC-1-A spheroids, 6 days (human FRα on cells [3]): 8.5 nM
3D EC50 (nM), in vitro cytotoxicity, IGROV-1 spheroids, 6 days (human FRα on cells [3]): 0.6 nM
3D EC50 (nM), in vitro cytotoxicity, OVCAR-3 spheroids, 6 days (human FRα on cells [3]): 1.8 nM
3D EC50 (nM), in vitro cytotoxicity, T-47D spheroids, 6 days (human FRα on cells [3]): 0.4 nM
